Results on 4 molecules are retold here after patent US20220204643A1 (published 2022).

What all share (assay): protein array
Experiment [1] has as its target T1, RNA binding motif protein 47, transcript variant X10 (human, UniProt A0AV96 1-593).
T1 construct: on protein array; also called RBM47
T1 sequence: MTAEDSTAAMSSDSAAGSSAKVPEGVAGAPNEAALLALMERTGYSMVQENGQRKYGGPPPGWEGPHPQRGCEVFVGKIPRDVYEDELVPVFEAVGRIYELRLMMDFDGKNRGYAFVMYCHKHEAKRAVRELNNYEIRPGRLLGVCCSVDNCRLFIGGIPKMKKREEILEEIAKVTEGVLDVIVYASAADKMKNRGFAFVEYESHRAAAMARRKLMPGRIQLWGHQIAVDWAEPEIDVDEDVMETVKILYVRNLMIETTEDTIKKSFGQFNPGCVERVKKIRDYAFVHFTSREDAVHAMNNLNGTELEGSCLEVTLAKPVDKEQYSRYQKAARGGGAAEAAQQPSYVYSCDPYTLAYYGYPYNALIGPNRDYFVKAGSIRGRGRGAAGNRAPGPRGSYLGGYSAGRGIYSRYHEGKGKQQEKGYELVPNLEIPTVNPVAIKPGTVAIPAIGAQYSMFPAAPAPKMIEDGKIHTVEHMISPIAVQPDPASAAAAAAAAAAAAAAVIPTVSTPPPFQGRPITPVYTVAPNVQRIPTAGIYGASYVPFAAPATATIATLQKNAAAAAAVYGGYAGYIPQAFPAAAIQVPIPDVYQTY

Experiment [2] addresses T2, NCCRP1, F-box associated domain containing (human, UniProt Q6ZVX7 1-275).
T2 construct: on protein array
T2 sequence: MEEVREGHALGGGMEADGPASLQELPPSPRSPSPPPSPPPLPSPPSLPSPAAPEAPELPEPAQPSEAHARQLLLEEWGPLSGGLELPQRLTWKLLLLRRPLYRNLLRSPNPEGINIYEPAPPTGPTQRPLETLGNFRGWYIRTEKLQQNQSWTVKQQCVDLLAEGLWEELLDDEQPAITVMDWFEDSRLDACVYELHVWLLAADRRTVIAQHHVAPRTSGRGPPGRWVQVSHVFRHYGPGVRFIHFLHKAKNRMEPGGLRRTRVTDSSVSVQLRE

Experiment [3] concerns the target T3, coiled-coil domain containing 102A, transcript variant X1 (human, UniProt Q96A19 1-550).
T3 construct: on protein array; also called CCDC102A

Experiment [4] concerns the target T4, Atpase secretory pathway ca2+ transporting 1 (human, UniProt P98194 1-909).
T4 construct: on protein array; also called ATP2C1
T4 sequence: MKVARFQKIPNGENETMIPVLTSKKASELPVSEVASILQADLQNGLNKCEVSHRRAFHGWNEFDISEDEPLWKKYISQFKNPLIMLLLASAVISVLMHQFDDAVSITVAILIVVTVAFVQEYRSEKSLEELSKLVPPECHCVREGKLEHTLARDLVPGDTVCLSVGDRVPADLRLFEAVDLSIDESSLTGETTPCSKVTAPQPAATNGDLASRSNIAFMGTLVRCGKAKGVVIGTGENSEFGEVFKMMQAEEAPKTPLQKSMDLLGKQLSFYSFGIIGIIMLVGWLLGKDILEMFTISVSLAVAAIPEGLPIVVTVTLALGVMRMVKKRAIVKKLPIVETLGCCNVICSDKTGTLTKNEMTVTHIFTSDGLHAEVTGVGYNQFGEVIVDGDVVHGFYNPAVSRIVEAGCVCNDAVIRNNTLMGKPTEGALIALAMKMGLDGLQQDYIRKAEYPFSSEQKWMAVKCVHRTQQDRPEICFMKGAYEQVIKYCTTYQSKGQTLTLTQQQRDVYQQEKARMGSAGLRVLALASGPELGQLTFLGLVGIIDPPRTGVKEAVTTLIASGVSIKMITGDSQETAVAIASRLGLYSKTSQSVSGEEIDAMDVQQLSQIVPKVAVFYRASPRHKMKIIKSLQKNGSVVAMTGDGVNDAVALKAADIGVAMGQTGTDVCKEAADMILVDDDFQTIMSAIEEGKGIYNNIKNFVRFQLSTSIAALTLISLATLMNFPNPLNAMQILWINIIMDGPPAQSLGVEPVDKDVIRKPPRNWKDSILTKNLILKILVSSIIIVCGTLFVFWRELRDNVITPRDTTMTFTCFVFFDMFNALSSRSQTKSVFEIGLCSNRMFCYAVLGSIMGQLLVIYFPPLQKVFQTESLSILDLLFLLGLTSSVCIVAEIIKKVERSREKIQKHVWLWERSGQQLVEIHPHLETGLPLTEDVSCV

Experiment [5] concerns the target T5, teashirt zinc finger homeobox 2, transcript variant 1 (human, UniProt Q9NRE2 1-1034).
T5 construct: on protein array; also called TSHZ2
T5 sequence: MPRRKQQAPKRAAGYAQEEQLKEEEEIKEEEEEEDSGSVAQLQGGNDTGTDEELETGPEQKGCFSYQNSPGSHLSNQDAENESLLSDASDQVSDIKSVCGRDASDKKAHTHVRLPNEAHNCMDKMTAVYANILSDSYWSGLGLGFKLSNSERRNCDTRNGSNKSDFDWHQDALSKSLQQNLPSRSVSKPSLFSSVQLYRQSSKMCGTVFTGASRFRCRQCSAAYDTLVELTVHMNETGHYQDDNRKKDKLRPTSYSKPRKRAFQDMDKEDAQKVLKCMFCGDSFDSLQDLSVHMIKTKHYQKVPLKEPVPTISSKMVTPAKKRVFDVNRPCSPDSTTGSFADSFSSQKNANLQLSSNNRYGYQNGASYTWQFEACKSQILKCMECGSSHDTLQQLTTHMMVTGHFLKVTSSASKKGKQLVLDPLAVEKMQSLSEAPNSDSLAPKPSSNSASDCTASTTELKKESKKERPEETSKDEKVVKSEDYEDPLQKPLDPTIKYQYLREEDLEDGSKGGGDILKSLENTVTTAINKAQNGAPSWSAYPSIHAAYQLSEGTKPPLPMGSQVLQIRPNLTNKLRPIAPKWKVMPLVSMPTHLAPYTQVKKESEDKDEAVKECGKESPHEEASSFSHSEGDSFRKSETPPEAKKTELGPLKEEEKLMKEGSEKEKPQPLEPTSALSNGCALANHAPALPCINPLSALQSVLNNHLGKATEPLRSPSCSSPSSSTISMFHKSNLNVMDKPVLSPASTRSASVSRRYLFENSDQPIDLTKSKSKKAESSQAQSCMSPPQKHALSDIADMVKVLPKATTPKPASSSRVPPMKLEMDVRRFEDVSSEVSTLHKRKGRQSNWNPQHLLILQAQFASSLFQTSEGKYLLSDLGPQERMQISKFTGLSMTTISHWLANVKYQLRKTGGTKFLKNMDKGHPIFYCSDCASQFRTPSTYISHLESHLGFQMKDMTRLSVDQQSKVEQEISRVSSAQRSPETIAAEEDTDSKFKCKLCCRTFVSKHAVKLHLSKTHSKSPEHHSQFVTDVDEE

The target of experiment [6] is T6, glycogen phosphorylase L, transcript variant 1 (human, UniProt P06737 2-847).
T6 construct: on protein array; also called PYGL
T6 sequence: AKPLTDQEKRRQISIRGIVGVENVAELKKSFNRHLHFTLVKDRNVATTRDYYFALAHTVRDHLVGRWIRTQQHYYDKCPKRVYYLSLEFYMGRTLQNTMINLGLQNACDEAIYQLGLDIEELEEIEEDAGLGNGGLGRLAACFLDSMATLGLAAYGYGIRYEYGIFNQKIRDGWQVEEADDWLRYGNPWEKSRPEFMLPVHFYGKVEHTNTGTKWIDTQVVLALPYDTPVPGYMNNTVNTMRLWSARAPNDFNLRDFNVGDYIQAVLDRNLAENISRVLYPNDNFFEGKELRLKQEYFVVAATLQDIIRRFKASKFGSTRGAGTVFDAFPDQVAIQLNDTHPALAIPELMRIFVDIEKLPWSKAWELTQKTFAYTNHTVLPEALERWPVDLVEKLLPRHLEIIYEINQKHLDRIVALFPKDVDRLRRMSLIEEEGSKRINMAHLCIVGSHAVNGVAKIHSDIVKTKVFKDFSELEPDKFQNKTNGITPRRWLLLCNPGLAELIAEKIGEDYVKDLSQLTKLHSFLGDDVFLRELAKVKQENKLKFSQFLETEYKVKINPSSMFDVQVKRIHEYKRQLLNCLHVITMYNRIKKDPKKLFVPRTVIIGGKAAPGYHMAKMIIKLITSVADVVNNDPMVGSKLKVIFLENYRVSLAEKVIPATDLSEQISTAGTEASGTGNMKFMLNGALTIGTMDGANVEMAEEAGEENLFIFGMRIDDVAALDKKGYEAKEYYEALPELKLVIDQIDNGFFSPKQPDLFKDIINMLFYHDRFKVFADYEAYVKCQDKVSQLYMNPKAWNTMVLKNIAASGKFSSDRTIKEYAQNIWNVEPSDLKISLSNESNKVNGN

In experiment [7] the target is T7, Reticulocalbin 3 (human, UniProt Q96D15 21-328).
T7 construct: on protein array; also called RCN3
T7 sequence: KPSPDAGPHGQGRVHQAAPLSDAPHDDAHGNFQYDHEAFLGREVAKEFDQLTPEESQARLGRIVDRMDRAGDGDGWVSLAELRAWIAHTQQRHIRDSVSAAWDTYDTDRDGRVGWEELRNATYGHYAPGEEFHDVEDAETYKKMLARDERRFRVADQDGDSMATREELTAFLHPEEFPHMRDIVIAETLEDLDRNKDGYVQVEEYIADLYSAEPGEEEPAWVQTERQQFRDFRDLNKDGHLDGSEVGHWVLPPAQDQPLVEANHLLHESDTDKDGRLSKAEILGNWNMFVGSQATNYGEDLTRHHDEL

The target in experiment [8] is T8, synaptotagmin 12, transcript variant X4 (human, UniProt Q8IV01 1-421).
T8 construct: on protein array; also called SYT12
T8 sequence: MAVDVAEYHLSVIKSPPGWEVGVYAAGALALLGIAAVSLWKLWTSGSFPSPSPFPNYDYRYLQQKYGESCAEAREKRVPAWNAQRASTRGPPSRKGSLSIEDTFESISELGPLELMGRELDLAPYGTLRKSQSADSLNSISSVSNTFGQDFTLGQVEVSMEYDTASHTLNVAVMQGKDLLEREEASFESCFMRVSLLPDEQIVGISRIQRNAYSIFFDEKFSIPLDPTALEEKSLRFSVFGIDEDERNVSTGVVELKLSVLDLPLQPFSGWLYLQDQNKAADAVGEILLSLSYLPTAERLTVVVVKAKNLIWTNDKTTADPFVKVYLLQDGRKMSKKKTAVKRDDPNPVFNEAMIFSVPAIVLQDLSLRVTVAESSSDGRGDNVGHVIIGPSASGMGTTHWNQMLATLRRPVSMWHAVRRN

T3 sequence (Q96A19 other isoform, or with tags, fused parts or gaps mutant limits assumed): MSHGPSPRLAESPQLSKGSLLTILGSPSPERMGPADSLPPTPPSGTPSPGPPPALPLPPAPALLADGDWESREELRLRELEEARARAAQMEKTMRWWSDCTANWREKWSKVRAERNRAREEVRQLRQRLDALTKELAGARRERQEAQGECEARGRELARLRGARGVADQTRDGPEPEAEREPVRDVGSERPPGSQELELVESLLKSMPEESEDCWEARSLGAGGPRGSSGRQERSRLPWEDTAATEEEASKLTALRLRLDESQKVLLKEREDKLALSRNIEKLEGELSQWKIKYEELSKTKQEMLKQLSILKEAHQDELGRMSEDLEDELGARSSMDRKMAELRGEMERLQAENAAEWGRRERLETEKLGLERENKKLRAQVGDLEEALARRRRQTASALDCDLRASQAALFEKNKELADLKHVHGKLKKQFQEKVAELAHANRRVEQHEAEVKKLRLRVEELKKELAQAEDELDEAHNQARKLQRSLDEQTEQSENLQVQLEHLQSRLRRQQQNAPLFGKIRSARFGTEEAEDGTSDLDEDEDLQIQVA

B1: THNS1004 (antibody, V domains shown)
VH: EVQLVESGGGLVQPGGSLRLSCAASGFTFSSNWMSWVRQAPGKGLEWVANIKEDGSEKYYVDSVKGRFTIFRDNAKNSLYLQMNSLRAEDTAVYYCARVPSRYGRSRGAFDIWGQGTMVTVSS
VL: DIQMTQSPSSLSASVGDRVTITCRASQSISSYLNWYQQKPGKAPKLLIYAASSLQSGVPSRFSGSGSGTDFTLAISSLQPEDFATYYCHQTYSTRLTFGGGTEVEIKR
notes: VH/VL only
Consider B1, for which, in experiment [1], the binding result is “binds”.

B2: THNS1003 (antibody, V domains shown)
VH: VVQLVESGGGLVQPGGSLRLSCAASGFTFNNYEMNWVRQAPGKGLEWVSYISSSGSTIYYADSVKGRFTISRDNAKNSLYLQMNSLRAEDTAVYYCARQMVTTRGYWGQGTLVTVSS
VL: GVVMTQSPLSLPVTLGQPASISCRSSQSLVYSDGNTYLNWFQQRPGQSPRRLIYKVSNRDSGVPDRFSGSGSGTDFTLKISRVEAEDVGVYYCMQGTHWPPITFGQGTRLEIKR
notes: VH/VL only
For B2, the binding result in experiment [2] and in experiment [3] was “binds” throughout.

B3: TESO1006 (antibody, V domains shown)
VH: QLHLQESGPGLVKPSETLSLTCTVSGGSVSSSSYYWGWVRQPPGKGLEWIGHVYYSGRTYYNPSLKSRATISLDTSKNQFSLKLSSLTATDTAVYYCATIVAAYSYGFEFDPWGQGILVIVSS
VL: QSVLTQPPSVSAAPGQKVTISCSGGSSNIGNNYVSWYQQLPGTAPKLIIYDNDKRPAGIPDRFSGSKSGSSATLGITGLQNGDEAEYYCGTWDSSLGGGVFGGGTKVTVLG
notes: VH/VL only
In the case of B3, the binding result in experiment [4] and in experiment [5] was “binds” in each case.

B4: TBLA1007 (antibody, V domains shown)
VH: QVQLVQSGAEVKKPGASVKVSCKASGYTFTNYGFSWVRQAPGQGLEWMGRITTYNRDTIYAQKFQGRVTMTTDTSTSTAYMELRSLRSDDTAVYFCARVVPGDSVYGAFDIWGQGTMVTVSS
VL: DIQMTQSPSSLSASVGDRVTITCRASQSISSYLNWYQQKPGRAPRLLIYAASRLQIGVPSRFSGSGSGTDFTLTISSLQPEDFATYYCQQSYRMPCSFGQGTKLEI
notes: VH/VL only
For B4, the binding result in experiment [6], in experiment [7] and in experiment [8] was “binds” in each case.
